# Measured values from paper PMC5720831.
# Target: biotinylated Mtb DnaB (Mycobacterium tuberculosis)
# Assay: BLI; Octet RED96; 200 nM biotinylated DnaB loaded on streptavidin biosensors, DciAMtb in solution at varying concentrations, 300 s association and 300 s dissociation; 150 mM NaCl, 0.02% Tween-20, 0.1% BSA, 10 mM NaPO4 pH 8; double reference subtracted; global fit, 1:1 kinetic binding model
substance,measurement,value
"DciAMtb, purified recombinant, untagged (from UniProt P9WFL1 1-187) (natural protein)",Kd,211 nM
